B1: KCNA3 (parent)
chain: GERVVINISGLRFETQLKTLCQFP
B2: TRAF3IP2 (parent)
chain: PGQPLPGASVRGLHPVQKVILNYP

Variants of: B1
Test: protein stability index of a GFP-peptide fusion (GPS, HEK-293T) (PSI 1-6); higher = more stable
Conditions: c terminus: a fixed tail appended
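Also: lentivirally expressed fusions sorted by FACS into six bins by GFP to DsRed ratio, PSI derived from sequencing read proportions per bin multiplied by bin number.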

Protein stability index: each site, then its substitutions
S9: V 1.83; Q 3.24; K 2.4; F 2.47; P 1; D 1.51; G 1.04; A 1.29; L 2.27; E 3.59
I6: S 2.86; A 2.21; C 1.38; G 1.74; N 3.47; D 2.46; Y 1.33; R 2.21; K 2.68; H 1.78; P 3.15; M 1.32; Q 3.56; E 2.52; T 2.75
L17: P 2.58; N 2.04; H 3.03; K 1.42; E 1.87; I 2.92; R 1.87; D 2.06; V 2.92; T 2.85; A 2.88
L20: R 2.84; Q 1.2; K 3.74; D 1.22; C 1.39; A 2.24; I 1.56; M 2.22; N 2.33; S 2.34; G 1.95
Q22: C 4.8; T 2.59; N 2.1; E 2.39; G 2.94; A 1.9; L 1.84; H 2.26; D 3.65; M 3.99
F13: I 2.7; D 1.48; S 1.97; T 1.56; P 2.27; Q 1.87; K 1.67; N 1.26; L 1.06; C 2.83; E 2.14; V 2.58; A 1.45; M 2.64; G 2.14
T19: C 3.24; E 2; A 1.87; Q 1.28; R 1.32; K 1.45; N 1.34; M 3.15; H 1.78; P 1.49; F 1.76
R12: K 2.5; N 2.85; Y 2.61; P 1.45; W 2.37; Q 2.21; L 4.18; C 2.46; D 1.84; S 1.48
Q16: G 2.49; M 4.05; Y 2.02; N 1.04; D 1.87; F 2.47; P 2; S 2.69; H 2.53; T 1.39
N7: H 4.19; E 2.1; P 1.53; Q 2.66; S 4.73; C 2.1; D 1.83; G 2.14; Y 1.8
V5: N 1.76; I 2.99; G 2.04; Y 2.39; K 2.49; A 1.53; Q 1.94; C 2.49; H 1.93; P 2.17; F 2.05; S 1.67; E 1.47; L 2.29; D 1.55; T 2.42; R 2.18
E14: N 2.08; K 2.42; G 2.74; P 1; D 2.37; H 3.28; R 1.89; Q 1.04; V 3; M 3.03; T 1.83
T15: G 4.2; Y 2.63; N 3.66; R 2.69; L 3.24; Q 2.31; E 2.62
C21: D 2.14; F 2.95; N 1.37; V 1.81; Q 2.57; G 1; R 3.08; M 1.12; T 2.68; H 1.91; P 3.67; I 3.26
V4: T 2.27; Y 2.16; S 2.59; R 2.28; Q 2.34; W 2.82; P 2.13
I8: F 2.85; M 1.65; V 1.28; Y 2; S 1.86; N 2.53; P 3.11; C 2.62; R 1.83; G 2.23; A 1.67; D 2.82; K 1.97; H 2.55; T 2.17; Q 2.12; E 3.02; W 1.76
K18: C 1.92; S 1.78; D 3.02; E 3.06; R 2.29; I 3.07; A 3.07; Q 1.87; M 3.17
P24: V 1.04; F 3.52; G 2.75; C 2.4; A 2.47; N 3.07; W 1.69; E 4.68; L 2.2; K 1.44; I 2; Y 2.26
F23: R 1.92; L 1.95; T 1.36; K 1.59; H 3.14; C 3.65; N 1.52; S 2.88; D 2.25; I 2.48; Q 1.94; A 2.41; E 2.2
L11: A 1.34; H 1.38; N 2.94; E 2.01; V 3.59; T 1.58; P 1.54; F 1.61; Q 1.45; W 2.49; I 2.68; D 1.81; G 2.45; S 1.75
G10: V 1; P 4.02; R 1.26; I 1.81; N 2.35; D 1.47; L 3.08; E 2.8; F 2.81; T 2.62

Variants of: B2
Test: as above
Conditions: c terminus: a fixed tail appended

Protein stability index: each site, then its substitutions
P1: K 3.02; G 2.86; M 3; C 1.73; S 2.62; W 2.45; D 2.97; Y 2.49; N 3.63; H 3.31; Q 3.47; L 2.78; F 3; E 3.31; I 2.99; T 2.65; V 3.25
Q3: L 2.96; T 3.12; D 3.15; A 3.28; N 3.28; P 3.57; K 3.09; R 3.11; C 2.71; V 3.42; Y 2.41; W 2.31; F 2.42; H 2.72; E 3.65; S 3.97; M 3.34; G 4.09; I 2.88
L5: G 3.56; P 3.64; A 3.31; H 3.42; W 2.94; C 2.94; Y 3.48; T 3.88; R 3.19; K 3.25; D 3.84; Q 3.95; I 3.34; S 3.43; E 3.15; M 3.44; N 3.66; F 2.29
G2: V 3.21; H 2.06; I 2.62; F 2.92; L 2.23; R 3.39; T 3.21; A 2.89; P 3.35; E 3.79; W 2.15; Q 2.85; M 2.44; D 4.21; N 2.65; S 2.81; K 2.58; C 2.22
P4: G 2.22; I 2.41; V 2.69; L 2.66; D 3.03; A 3.17; R 3.21; Y 2.77; H 3.08; Q 3.29; N 2.06; T 4.15; W 2.84; C 2.73; E 3.52; K 2.69; F 2.92; S 2.6; M 3
P6: A 3.49

Reference: the supplement of paper PMC10567573
